Source: publication PMC11500988

Target: human FcγRIIIa-V158 (CD16a, V158 allotype) (human) (UniProt P08637)

With “P-TMab (trastuzumab produced by the glycoengineered rice cell line PhytoRice, line PHYTO101) (antibody)” the EC50 of the in vitro ADCC assay (luminescence, Bio-Glo reagent; BT-474 target cells, Jurkat cells) was 0.017 µg/mL.
